Substitutions are numbered along the chain they refer to.
B1: mAb 5A4.2 (antibody, human IgG2, lambda, V domains shown)
VH: QVQLVQSGAEVKKPGASVKVSCKASGYTFTDYYMNWVRQAPGQGLEWMGWINPNSGGTKYAQKFQGRVTMTRDTSIRTAYMELSRLRSDDTAVYYCSREYGGNSDWFDPWGQGTLVTVSS
VL: QSVLTQPPSVSGAPGQRVTISCTGSSSNIGAGYDVHWYQQLPGTAPKLLIYGNSNRPSGVPDRFSGSKSGTSASLAITGLQAEDEADYYCQSYDNRLSDSVVIGGGTKLTVQG
notes: fully human IgG2 lambda, Campaign 2
B2: mAb 5B1.1 (antibody, human IgG2, lambda, V domains shown)
VH: B1 VH with M34I, T58S, K59S, R77S, Y80H, S84I, S97A, Y100R, N103I, S104E
VL: QSVLTQPPSVSGAPGQRVTISCTGSSSNIGAGYDVHWYQQLPGTAPKLLIYGNSNRPSGVPDRFSGSKSGTSASLAITKFQAEDEAVYYCQSYGSGLSGVVFGGGTKLTVLG
notes: fully human IgG2 lambda, Campaign 2; also called mAb 5Bl1.1
B3: mAb 5B5.2 (antibody, human IgG2, lambda, V domains shown)
VH: B1 VH with M34I, K59D, S84N, R87T, S97A, N103Y, S104E
VL: QSVLTQPPSVSGAPGQRVTISCTGSNSNIGAGFDVHWYQQLPGTVPKLLIYGNNNRPSGVPDRFSGSKSGTSASLAITGLQAEDEADYYCQSYDSRLTVFGGGTKLTVLG
notes: fully human IgG2 lambda, Campaign 2; same chains as 5B5.1
B4: mAb 5F2.1 (antibody, human IgG2, lambda, V domains shown)
VH: B1 VH with K59H, R77S, S97A, N103Y
VL: B1 VL with S26R, G43R, G52D, T71S, R96S, V102L, Q112L
notes: as for B1
B5: mAb 5C1.1 (antibody, human IgG2, lambda, V domains shown)
VH: B1 VH with S97A
VL: B1 VL with T110A
notes: as for B1
B6: mAb 5A1.1 (antibody, human IgG2)
heavy: QVQLVQSGAEVKKPGASVKVPCKASGYTFTDYYINWVRQAPGQGLEWMGWINPNNGGTNYAQKFQGRVTMTRDTSISTAYMELRRLRSDDTAVYYCARERGGYEDWFDPWGQGTLVTVSSASTKGPSVFPLAPCSRSTSESTAALGCLVKDYFPEPVTVSWNSGALTSGVHTFPAVLQSSGLYSLSSVVTVPSSNFGTQTYTCNVDHKPSNTKVDKTVERKCCVECPPCPAPPVAGPSVFLFPPKPKDTLMISRTPEVTCVVVDVSHEDPEVQFNWYVDGVEVHNAKTKPREEQFNSTFRVVSVLTVVHQDWLNGKEYKCKVSNKGLPAPIEKTISKTKGQPREPQVYTLPPSREEMTKNQVSLTCLVKGFYPSDIAVEWESNGQPENNYKTTPPMLDSDGSFFLYSKLTVDKSRWQQGNVFSCSVMHEALHNHYTQKSLSLSPGK
VL: QSVLTQPPSVSGAPGQRVTISCTGSSSNIGAGFDVHWYQQLPVTAPKLLIYGNRNRPSGVPARFSGSKSGTSASLAITGLQAEDEAVYYCQSYDSSLTVFGGGTKLTVL
notes: fully human, Campaign 2; lambda CL-1

The binders below were run against T1, hOrai1-mOrai1 ECL2 (…) protein (human/mouse chimera, UniProt Q96D31 1-301) (assay: FACS, 293EBNA, RFI-POC grade).
T1 construct: also called Ch
Set-up: concentration or dose not given beside the values
T1 sequence (Q96D31 other isoform, or with tags, fused parts or gaps): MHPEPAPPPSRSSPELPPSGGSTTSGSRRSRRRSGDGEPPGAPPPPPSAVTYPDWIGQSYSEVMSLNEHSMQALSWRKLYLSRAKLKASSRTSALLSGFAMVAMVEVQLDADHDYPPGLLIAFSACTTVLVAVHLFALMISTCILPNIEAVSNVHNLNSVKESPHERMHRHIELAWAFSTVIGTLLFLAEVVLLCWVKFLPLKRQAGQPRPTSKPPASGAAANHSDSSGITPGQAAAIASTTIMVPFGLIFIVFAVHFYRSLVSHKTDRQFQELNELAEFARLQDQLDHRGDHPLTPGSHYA

| percent of control (POC) of FACS Geo Mean [%] | Binder |
| --- | --- |
| 40 to 100 | B1 |
| 40 to 100 | B2 |
| 40 to 100 | B3 |
| 40 to 100 | B4 |
| 40 to 100 | B5 |
| 40 to 100 | B6 |

What follows are binders tested against T2, hOrai1-mOrai1 ECL2 (SKPPA) protein (human/mouse chimera, UniProt Q96D31 1-301) (assay: FACS, 293EBNA, RFI-POC grade).
T2 construct: also called Ch
Set-up: concentration or dose not given beside the values

T2 sequence (Q96D31 other isoform, or with tags, fused parts or gaps): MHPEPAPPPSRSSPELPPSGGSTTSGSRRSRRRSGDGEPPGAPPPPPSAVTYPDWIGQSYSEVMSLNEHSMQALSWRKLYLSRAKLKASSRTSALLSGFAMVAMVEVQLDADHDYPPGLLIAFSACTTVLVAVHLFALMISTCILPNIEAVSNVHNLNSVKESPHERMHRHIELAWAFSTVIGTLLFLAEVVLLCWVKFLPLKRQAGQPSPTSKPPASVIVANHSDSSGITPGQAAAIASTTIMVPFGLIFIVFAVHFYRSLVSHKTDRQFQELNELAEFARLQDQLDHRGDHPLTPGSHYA

| percent of control (POC) of FACS Geo Mean [%] | Binder |
| --- | --- |
| 40 to 100 | B1 |
| 5 to 40 | B2 |
| 5 to 40 | B3 |
| 40 to 100 | B4 |
| 40 to 100 | B5 |
| 40 to 100 | B6 |

Each binder was assayed against T3, mOrai1-hOrai1 ECL2 chimeric protein (human/mouse chimera, UniProt Q8BWG9 1-304 (mouse entry)) (assay: FACS, 293EBNA, RFI-POC grade).
T3 construct: mouse Orai1 with human ECL2; also called Ch
Set-up: concentration or dose not given beside the values

T3 sequence (Q8BWG9 other isoform, or with tags, fused parts or gaps mutant): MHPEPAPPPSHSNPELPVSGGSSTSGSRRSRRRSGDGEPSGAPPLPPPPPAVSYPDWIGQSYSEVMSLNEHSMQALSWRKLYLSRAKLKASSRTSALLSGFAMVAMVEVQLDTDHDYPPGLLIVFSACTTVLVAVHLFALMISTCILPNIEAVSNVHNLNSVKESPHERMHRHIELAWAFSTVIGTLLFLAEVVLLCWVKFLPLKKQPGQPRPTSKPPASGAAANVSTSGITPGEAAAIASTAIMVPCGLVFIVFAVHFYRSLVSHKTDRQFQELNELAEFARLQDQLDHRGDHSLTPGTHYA

| percent of control (POC) of FACS Geo Mean [%] | Binder |
| --- | --- |
| 40 to 100 | B1 |
| 40 to 100 | B2 |
| 40 to 100 | B3 |
| 40 to 100 | B4 |
| 40 to 100 | B5 |
| 40 to 100 | B6 |

Each binder was assayed against T4, hOrai1-mOrai1 ECL2 (…) protein (human/mouse chimera, UniProt Q96D31 1-301) (assay: FACS, 293EBNA, RFI-POC grade).
T4 construct: also called Ch
Set-up: concentration or dose not given beside the values
T4 sequence (Q96D31 other isoform, or with tags, fused parts or gaps): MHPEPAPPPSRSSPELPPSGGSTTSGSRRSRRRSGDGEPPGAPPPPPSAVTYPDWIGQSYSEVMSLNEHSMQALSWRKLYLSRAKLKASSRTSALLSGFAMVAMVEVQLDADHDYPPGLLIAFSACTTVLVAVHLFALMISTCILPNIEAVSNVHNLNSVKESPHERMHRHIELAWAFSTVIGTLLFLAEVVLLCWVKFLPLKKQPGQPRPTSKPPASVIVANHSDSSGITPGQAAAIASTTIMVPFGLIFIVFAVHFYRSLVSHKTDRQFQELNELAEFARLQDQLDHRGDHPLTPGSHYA

| percent of control (POC) of FACS Geo Mean [%] | Binder |
| --- | --- |
| 40 to 100 | B1 |
| 40 to 100 | B2 |
| 40 to 100 | B3 |
| 40 to 100 | B4 |
| 40 to 100 | B5 |
| 40 to 100 | B6 |

What follows are binders tested against T5, hOrai1-mOrai1 ECL2 (RPTSKPPA) protein (human/mouse chimera, UniProt Q96D31 1-301) (assay: FACS, 293EBNA, RFI-POC grade).
T5 construct: also called Ch
Set-up: concentration or dose not given beside the values

T5 sequence (Q96D31 other isoform, or with tags, fused parts or gaps): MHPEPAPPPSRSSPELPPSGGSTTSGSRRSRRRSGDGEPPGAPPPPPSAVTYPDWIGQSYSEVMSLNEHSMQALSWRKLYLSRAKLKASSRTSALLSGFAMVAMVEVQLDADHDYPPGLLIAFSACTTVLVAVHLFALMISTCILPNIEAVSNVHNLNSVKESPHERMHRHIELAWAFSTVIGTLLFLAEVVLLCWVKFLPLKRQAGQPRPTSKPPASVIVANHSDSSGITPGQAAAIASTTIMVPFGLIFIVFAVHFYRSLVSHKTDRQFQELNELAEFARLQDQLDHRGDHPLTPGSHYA

| percent of control (POC) of FACS Geo Mean [%] | Binder |
| --- | --- |
| 40 to 100 | B1 |
| 40 to 100 | B2 |
| 40 to 100 | B3 |
| 40 to 100 | B4 |
| 40 to 100 | B5 |
| 40 to 100 | B6 |

Each binder was assayed against T6, hOrai1-mOrai1 ECL2 (…) protein (human/mouse chimera, UniProt Q96D31 1-301) (assay: FACS, 293EBNA, RFI-POC grade).
T6 construct: also called Ch
Set-up: concentration or dose not given beside the values
T6 sequence (Q96D31 other isoform, or with tags, fused parts or gaps): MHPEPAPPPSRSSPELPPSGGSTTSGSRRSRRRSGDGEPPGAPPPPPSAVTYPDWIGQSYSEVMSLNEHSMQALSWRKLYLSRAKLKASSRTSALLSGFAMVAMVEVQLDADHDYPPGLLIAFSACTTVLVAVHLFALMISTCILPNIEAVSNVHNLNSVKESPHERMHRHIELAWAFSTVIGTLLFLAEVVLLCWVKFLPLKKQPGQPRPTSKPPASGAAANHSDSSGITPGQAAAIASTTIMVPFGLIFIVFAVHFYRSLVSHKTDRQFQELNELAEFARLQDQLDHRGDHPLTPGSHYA

| percent of control (POC) of FACS Geo Mean [%] | Binder |
| --- | --- |
| 40 to 100 | B1 |
| 40 to 100 | B2 |
| 40 to 100 | B3 |
| 40 to 100 | B4 |
| 40 to 100 | B5 |
| 40 to 100 | B6 |

Each binder was assayed against T7, mOrai1-hOrai1 ECL2 (HSD) protein (human/mouse chimera, UniProt Q8BWG9 1-304 (mouse entry)) (assay: FACS, 293EBNA, RFI-POC grade).
T7 construct: also called Ch
Set-up: concentration or dose not given beside the values
Source text: (§1) FIG. 16A-D illustrates the results of FACS analysis showing binding to the indicated mOrai1-hOrai1 ECL2 chimeric mutants expressed on the surface of HEK-293-EBNA cells. Transfected cells were stained first with recombinant monoclonal antibodies then counter-stained with a secondary phycoerythrin-labeled goat (“Gt”) anti-human (“Hu”) IgG F(ab′)₂ antibody fragment and visualized using FACS. In FIG. 16B and FIG. 16D, The values of Relative Fluorescence Intensity as Percent of Control (RFI-POC) are calculated from the relative fluorescence intensity geometric mean (Geo Mean). The geometric mean is an average calculated by multiplying a series of numbers and taking the nth root where n is the number of numbers in the series. It is a statistical average of a set of transformed numbers often used to represent a central tendency in a highly variable data set that minimizes the effects of extreme values.
(§2) Table 11A and Table 11B feature a schematic representation of the POC data from FIG. 16B and FIG. 16D, respectively, where the binding results are recorded as (+++) denoting binding POC from 40% to 100%, (++) for POC of 5% to less than 40%, (+) for POC from 1% to less than 5% and (−) as lack of binding with POC less than 1%.

T7 sequence (Q8BWG9 other isoform, or with tags, fused parts or gaps): as the sequence (Q8BWG9 other isoform, or with tags, fused parts or gaps mutant) above, with V226H, T228D counted along it

| POC (percent of control, FACS Geo Mean relative to binding to Ch. 1) [%] | Binder |
| --- | --- |
| 40 to 100 | B1 |
| 40 to 100 | B2 |
| 40 to 100 | B3 |
| 40 to 100 | B4 |
| 40 to 100 | B5 |
| 40 to 100 | B6 |

Target: T3, mOrai1-hOrai1 ECL2 chimeric protein
Test: FACS, 293EBNA, RFI-POC grade
Set-up: concentration or dose not given beside the values
Remark: another data set of the same source
Source text: as §1, §2

| POC (percent of control, FACS Geo Mean relative to binding to Ch. 1) [%] | Binder |
| --- | --- |
| 40 to 100 | B1 |
| 40 to 100 | B2 |
| 40 to 100 | B3 |
| 40 to 100 | B4 |
| 40 to 100 | B5 |
| 40 to 100 | B6 |

These binders were tested against T8, mOrai1-hOrai1 ECL2 (VIV) protein (human/mouse chimera, UniProt Q8BWG9 1-304 (mouse entry)) (assay: FACS, 293EBNA, RFI-POC grade).
T8 construct: also called Ch
Set-up: concentration or dose not given beside the values
Source text: as §1, §2

T8 sequence (Q8BWG9 other isoform, or with tags, fused parts or gaps): as the sequence (Q8BWG9 other isoform, or with tags, fused parts or gaps mutant) above, with G221V, A222I, A223V counted along it

| POC (percent of control, FACS Geo Mean relative to binding to Ch. 1) [%] | Binder |
| --- | --- |
| 40 to 100 | B1 |
| 40 to 100 | B2 |
| 40 to 100 | B3 |
| 40 to 100 | B4 |
| 40 to 100 | B5 |
| 40 to 100 | B6 |

The binders below were run against human Orai1 (human, UniProt Q96D31 1-301) (assay: cell-based or functional assay).
Chain of human Orai1 (Q96D31 whole entry): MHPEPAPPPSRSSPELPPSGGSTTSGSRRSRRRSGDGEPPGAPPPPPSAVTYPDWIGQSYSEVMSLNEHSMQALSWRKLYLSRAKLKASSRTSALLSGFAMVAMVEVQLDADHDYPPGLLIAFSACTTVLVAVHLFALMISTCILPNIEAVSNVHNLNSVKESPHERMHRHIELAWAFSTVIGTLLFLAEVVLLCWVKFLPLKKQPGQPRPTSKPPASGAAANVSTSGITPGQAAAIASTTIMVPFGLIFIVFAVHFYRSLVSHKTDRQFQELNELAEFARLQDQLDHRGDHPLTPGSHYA

| IC50 IFN-γ, whole blood Donor A [nM] | IC50 IFN-γ, whole blood Donor B [nM] | IC50 IL-2, whole blood Donor A [nM] | IC50 IL-2, whole blood Donor B [nM] | Binder |
| --- | --- | --- | --- | --- |
| 4.83 | 2.76 | 1.88 | 1.21 | B1 |
| 7.4 | 10.7 | 2.73 | 4.45 | B2 |
| – | 6.58 | 1.39 | 3.1 | B3 |
| – | – | 4.83 | 3.79 | B4 |
| 5.42 | 2.41 | 2.18 | 1.24 | B5 |
| 8.15 | 1.66 | 11.2 | 5.59 | B6 |
